Results taken from publication PMC5821440.
Numbered stars: 1 amine (or outer) side, 2 acyl side, 3 side chain; on linkers, the order of the positions; unused ones are H or OH. * marks the point of attachment. pNA = O=[N+]([O-])c1ccc(N*)cc1; Suc = O=C(CCC(=O)[*:2])[*:1]

Experiments:
[1] = molecular target: Pro21717-CD, catalytic domain of the cold-active subtilisin-like serine protease Pro21717 from Pseudoalteromonas arctica PAMC 21717 (Pseudoalteromonas arctica PAMC 21717); assay: not stated; purified Pro21717-CD in solution, three days after refolding; method in S2 Fig, not shown
[2] = molecular target: Pro21717-CD, catalytic domain of the cold-active subtilisin-like serine protease Pro21717 from Pseudoalteromonas arctica PAMC 21717 (Pseudoalteromonas arctica PAMC 21717)

stoichiometry N [1]	relative proteolytic activity (%) on N-succinyl-AAPF-p-nitroanilide, 0.83 mM, 30°C, 5 min (the best peptide substrate, set to 100) [2] [%]	Molecule
2		Pro21717-CD, catalytic domain of the cold-active subtilisin-like serine protease Pro21717 from Pseudoalteromonas arctica PAMC 21717 (domain or fragment)
	100	Suc-AAPF-pNA [N-succinyl-Ala-Ala-Pro-Phe-p-nitroanilide]
